Laboratory results: patent US20130209454A1

Experiments:
Assay in all cases: cell-based or functional assay
[1] = target: HIV-1 Env of strain X1254_c3 (HIV-1)
[2] = target: HIV-1 Env of strain ZM249M.PL1 (HIV-1)
[3] = target: HIV-1 Env of strain 3365.v2.c2 (HIV-1)
[4] = target: Env of HIV-1 strain CNE20 (HIV-1)
[5] = target: Env of HIV-1 strain X1193_c1 (HIV-1)
[6] = target: Env of HIV-1 strain 3817.v2.c59 (HIV-1)
[7] = target: Env of HIV-1 strain T257-31 (HIV-1)
[8] = target: HIV-1 Env of strain SC05_8C11_2344 (HIV-1)
[9] = target: HIV-1 Env of strain CNE19 (HIV-1)
[10] = target: HIV-1 Env of strain Ce0682_E4 (HIV-1)
[11] = target: Env of HIV-1 strain 7030102001E5(Rev-) (HIV-1)
[12] = target: HIV-1 Env of strain 62357_14_D3_4589 (HIV-1)
[13] = target: Env of HIV-1 strain X1254_c3 (HIV-1)
[14] = target: Env of HIV-1 strain HIV-001428-2.42 (HIV-1)
[15] = target: Env of HIV-1 strain ZM53M.PB12 (HIV-1)
[16] = target: HIV-1 Env of strain 263-8 (HIV-1)
[17] = target: Env of HIV-1 strain ZM214M.PL15 (HIV-1)
[18] = target: Env of HIV-1 strain BF1266.431a (HIV-1)
[19] = target: Env of HIV-1 strain Q461.e2 (HIV-1)
[20] = target: HIV-1 Env of strain 191821_E6_1 (HIV-1)
[21] = target: HIV-1 Env of strain 6545.v4.c1 (HIV-1)
[22] = target: Env of HIV-1 strain C3347.c11 (HIV-1)
[23] = target: Env of HIV-1 strain 231965.c01 (HIV-1)
[24] = target: Env of HIV-1 strain 1394C9G1(Rev-) (HIV-1)
[25] = target: Env of HIV-1 strain CNE5 (HIV-1)
[26] = target: Env of HIV-1 strain Du422.1 (HIV-1)
[27] = target: HIV-1 Env of strain CNE21 (HIV-1)
[28] = target: HIV-1 Env of strain BJOX010000.06.2 (HIV-1)
[29] = target: Env of HIV-1 strain ZM233M.PB6 (HIV-1)
[30] = target: HIV-1 Env of strain ZM109F.PB4 (HIV-1)
[31] = target: Env of HIV-1 strain 3301.v1.c24 (HIV-1)
[32] = target: Env of HIV-1 strain Du172.17 (HIV-1)
[33] = target: Env of HIV-1 strain 211-9 (HIV-1)
[34] = target: Env of HIV-1 strain T251-18 (HIV-1)
[35] = target: HIV-1 Env of strain T255-34 (HIV-1)
[36] = target: HIV-1 Env of strain 235-47 (HIV-1)
[37] = target: Env of HIV-1 strain CNE19 (HIV-1)
[38] = target: Env of HIV-1 strain Ce2060_G9 (HIV-1)

B1: NIH45-46^G54W (antibody, V domains shown)
VH: QVRLSQSGGQMKKPGESMRLSCRASGYEFLNCPINWIRLAPGRRPEWMGWLKPRWGAVNYARKFQGRVTMTRDVYSDTAFLELRSLTSDDTAVYFCTRGKYCTARDYYNWDFEHWGRGAPVTVSS
VL: EIVLTQSPATLSLSPGETAIISCRTSQSGSLAWYQQRPGQAPRLVIYSGSTRAAGIPDRFSGSRWGADYNLSISNLESGDFGVYYCQQYEFFGQGTKVQVDI
[1]
  IC50, pseudovirus neutralization: 0.002 µg/mL
[2]
  IC50, pseudovirus neutralization: 0.002 µg/mL
[3]
  IC50, pseudovirus neutralization: 0.01 µg/mL
[4]
  IC80: 0.48 µg/mL
[5]
  IC80: 0.009 µg/mL
[6]
  IC80: > 50 µg/mL
[7]
  IC80: 0.45 µg/mL
[8]
  IC50, pseudovirus neutralization: 0.021 µg/mL
[9]
  IC50, pseudovirus neutralization: 0.002 µg/mL
[10]
  IC50, pseudovirus neutralization: 0.01 µg/mL
[11]
  IC80: 0.228 µg/mL
[12]
  IC50, pseudovirus neutralization: 0.02 µg/mL
[13]
  IC80: 0.018 µg/mL
[14]
  IC80: 0.001 µg/mL
[15]
  IC80: 0.16 µg/mL
[16]
  IC50, pseudovirus neutralization: 0.001 µg/mL
[17]
  IC80: 0.15 µg/mL
[18]
  IC80: 0.001 µg/mL
[19]
  IC80: 0.091 µg/mL
[20]
  IC50, pseudovirus neutralization: 0.013 µg/mL
[21]
  IC50, pseudovirus neutralization: 18.9 µg/mL
[22]
  IC80: 0.028 µg/mL
[23]
  IC80: 0.035 µg/mL
[24]
  IC80: 0.024 µg/mL
[25]
  IC80: 0.116 µg/mL
[26]
  IC80: > 50 µg/mL
[27]
  IC50, pseudovirus neutralization: 0.03 µg/mL
[28]
  IC50, pseudovirus neutralization: 0.769 µg/mL
[29]
  IC80: 0.11 µg/mL
[30]
  IC50, pseudovirus neutralization: 0.002 µg/mL
[31]
  IC80: 0.004 µg/mL
[32]
  IC80: 42.9 µg/mL
[33]
  IC80: > 50 µg/mL
[34]
  IC80: 0.92 µg/mL
[35]
  IC50, pseudovirus neutralization: 0.001 µg/mL
[36]
  IC50, pseudovirus neutralization: 0.001 µg/mL
[37]
  IC80: 0.028 µg/mL
[38]
  IC80: 0.042 µg/mL
